Experimental data: patent publication US20260250371A1 (ULTRAGENYX PHARMACEUTICAL, published 2026)
Positions count from the first letter of the chain named. Numbers in names are those of the source. Where “and” joins values, the source holds several entries; their conditions need not be identical. Identical values can stand only once.

T1: cynomolgus monkey (Macaca fascicularis) FGF23 (R179Q) (cynomolgus monkey (Macaca fascicularis), UniProt Q9GZV9 25-251 (human entry), limits assumed)
T1 construct: also called cynoFGF23; cynoFGF23(R179Q)
T1 chain: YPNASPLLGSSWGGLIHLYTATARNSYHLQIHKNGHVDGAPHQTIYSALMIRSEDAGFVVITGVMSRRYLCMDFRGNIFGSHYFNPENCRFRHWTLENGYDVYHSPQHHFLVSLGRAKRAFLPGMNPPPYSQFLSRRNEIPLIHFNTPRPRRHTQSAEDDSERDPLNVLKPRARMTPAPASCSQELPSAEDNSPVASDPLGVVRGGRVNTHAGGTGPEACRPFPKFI

T2: recombinant human FGF23 (R179Q) (human, UniProt Q9GZV9 25-251)
T2 construct: also called rhFGF23(R179Q); hFGF23(R179Q)
T2 sequence (looked up): T1 chain with N85D, R92Q, W94Q, H108Y, R149I, V195M, A219G, P224A

B1: UGX126 (antibody, human IgG1, kappa, V domains shown)
VH: QVQLVQSGAEVKKPGASVKVSCKASGYTFTNHYMHWVRQAPGQGLEWMGIINPISGSTSNAQKFQGRVTMTRDTSTSTVYMELSSLRSEDTAVYYCARDIVDAFDFWGQGTMVTVSS
VL: AIQLTQSPSSLSASVGDRVTITCRASQGISSALVWYQQKPGKAPKLLIYDADSLESGVPSRFSGSGSGTDFTLTISSLQPEDFATYYCQQFNDYFTFGPGTKVDIKR
notes: also called LC:S52D; S52D
B2: UGX139 (antibody, human IgG1, kappa, V domains shown)
VH: B1 VH
VL: B1 VL with D52S, N92Y
notes: also called UGX038; LC:N92Y
B3: UGX145 (antibody, human IgG1, kappa, V domains shown)
VH: B1 VH
VL: B1 VL with D52S, Y94E
notes: also called UGX042; LC:Y94E
B4: UGX156 (antibody, human IgG1, kappa, V domains shown)
VH: B1 VH with I54F
VL: B1 VL with D52S
notes: also called HC:I54F; I54F
B5: UGX157 (antibody, human IgG1, kappa, V domains shown)
VH: B1 VH with I54Y
VL: B1 VL with D52S
notes: also called HC:I54Y; I54Y
B6: UGX175 (antibody, human IgG1, kappa, V domains shown)
VH: B1 VH with A103S
VL: B1 VL with D52S
notes: also called HC:A103S; A103S
B7: UGX182 (antibody, human IgG1, kappa, V domains shown)
VH: B1 VH with S59D, V101I
VL: B1 VL with D52S
notes: also called HC:S59D, HC:V101I; S59D/V101I
B8: UGX201 (antibody, human IgG1, kappa, V domains shown)
VH: B1 VH with S59E
VL: B1 VL with D52S, N92F
notes: also called HC:S59E, LC:N92F; S59E/N92F
B9: UGX202 (antibody, human IgG1, kappa, V domains shown)
VH: B1 VH with S59E
VL: B1 VL with D52S, N92Y
notes: also called HC:S59E, LC:N92Y; S59E/N92Y
B10: UGX203 (antibody, human IgG1, kappa, V domains shown)
VH: B1 VH with S59E
VL: B1 VL
notes: also called HC:S59E, LC:S52D; S59E/S52D
B11: UGX204 (antibody, human IgG1, kappa, V domains shown)
VH: B1 VH with S59E
VL: B1 VL with D52E
notes: also called HC:S59E, LC:S52E; S59E/S52E
B12: UGX205 (antibody, human IgG1, kappa, V domains shown)
VH: B1 VH with S59E
VL: B1 VL with D52S, Y94D
notes: also called HC:S59E, LC:Y94D; S59E/Y94D

Molecular target: T1, cynomolgus monkey (Macaca fascicularis) …
Assay: SPR, antibody captured on hIgG chip, cynoFGF23(R179Q) analyte, single cycle kinetics
Procedure: Binding kinetics of 13 antibody variants shown in Table 19 were characterized against cynomolgus monkey (Macaca fascicularis) FGF23 (R179Q) (i.e., “cynoFGF23”) (SEQ ID NO: 372). Antibody variants were expressed at small scale (3 ml) and screened by SPR analysis at a single concentration (100 nM). Experimental setup of SPR analysis for CRC: SPR device—8K+; chip preparation—CM5 hIgG chip: channels—1-8; immobilization concentration—1.5 ug/ml; immobilization method—capture; flow rate—5 μl/min; contact time—60 s; running buffer—1×HBS-EP+pH 7.4; temperature—20° C.: flow rate—50 μl/min; association time—120 s; dissociation time—1800 s; antigen—cynoFGF23(R179Q): top concentration—0.1 μM, 9-pt 3-fold Single Cycle Kinetics.

Row | Binder | KD ratio (variant antibody KD/burosumab KD) | Kd [nM]
1 | B1 | 2 | 0.0103
2 | B2 | 1 | 0.0162
3 | B3 | 2 | 0.0129
4 | B4 | 6 | 0.00415
5 | B5 | 4 | 0.00573
6 | B6 | 4 | 0.00617
7 | B7 | 1 | 0.0163
8 | B8 | 2 | 0.0101
9 | B9 | 3 | 0.00693
10 | B10 | 1 | 0.0229
11 | B11 | 1 | 0.016
12 | B12 | 9 | 0.00257

What follows are binders tested against T2, recombinant human FGF23 (R179Q) (assay: SPR, antibody captured on hIgG chip, rhFGF23(R179Q) analyte).

Row | Binder | Kd [nM] | Ratio (variant antibody KD/burosumab KD) | SA (surface activity) [%] | koff [s⁻¹] | kon [M⁻¹ s⁻¹]
13 | B1 | 0.0124 | 2 | 86.5 | 0.00013 | 1.05e+07
14 | B3 | 0.0133 | 2 | 87.4 | 8.52e-05 | 6.42e+06
15 | B4 | 0.0105 | 2 | 106 | 6.25e-05 | 5.94e+06
16 | B5 | 0.00758 | 3 | 89.1 | 0.000113 | 1.49e+07
17 | B6 | 0.00772 | 3 | 86.8 | 9.61e-05 | 1.24e+07
18 | B7 | 0.00947 | 2 | 100 | 0.000141 | 1.49e+07
19 | B8 | 0.00517 | 4 | 83.4 | 5.81e-05 | 1.12e+07
20 | B9 | 0.00759 | 3 | 91.6 | 9.8e-05 | 1.29e+07
21 | B10 | 0.0115 | 2 | 81.4 | 0.000145 | 1.26e+07
22 | B11 | 0.0133 | 2 | 90.4 | 0.000186 | 1.4e+07
23 | B12 | 0.00407 | 5 | 93.9 | 6.25e-05 | 1.53e+07

Each binder was assayed against T2, recombinant human FGF23 (R179Q) (assay: SPR, antibody captured on hIgG chip, human FGF23 analyte).

Row | Binder | KD ratio (variant antibody KD/burosumab KD) | Kd [nM]
24 | B1 | 2 | 0.0124
25 | B2 | 1 | 0.0164
26 | B3 | 2 | 0.0133
27 | B4 | 2 | 0.0105
28 | B5 | 3 | 0.00758
29 | B6 | 3 | 0.00772
30 | B7 | 2 | 0.00947
31 | B8 | 4 | 0.00517
32 | B9 | 3 | 0.00759
33 | B10 | 2 | 0.0115
34 | B11 | 2 | 0.0133
35 | B12 | 5 | 0.00407

Molecular target: T2, recombinant human FGF23 (R179Q)
Assay: SPR, antibody captured on hIgG chip, rhFGF23(R179Q) analyte
Remark: another data set of the same source

Row | Binder | Kd | Ratio (variant antibody KD/burosumab KD) | SA (surface activity) [%] | koff | kon
36 | B1 | 0.0124 nM | 2 | 86.5 | 0.00013 s⁻¹ | 1.05e+07 M⁻¹ s⁻¹
37 | B2 | 0.0164 nM | 1 | 86.2 | 0.000104 s⁻¹ | 6.32e+06 M⁻¹ s⁻¹
38 | B3 | 0.0138 nM and 0.0133 nM | – | – | 8.52e-05 s⁻¹ and 9.74e-05 s⁻¹ | 6.42e+06 M⁻¹ s⁻¹ and 7.07e+06 M⁻¹ s⁻¹
39 | B4 | 0.00924 nM and 0.0105 nM | 2 | – | 9.77e-05 s⁻¹ and 6.25e-05 s⁻¹ | 1.06e+07 M⁻¹ s⁻¹ and 5.94e+06 M⁻¹ s⁻¹
40 | B5 | 0.00758 nM | 3 | 89.1 | 0.000113 s⁻¹ | 1.49e+07 M⁻¹ s⁻¹
41 | B6 | 0.00772 nM | 3 | 86.8 | 9.61e-05 s⁻¹ | 1.24e+07 M⁻¹ s⁻¹
42 | B7 | 0.00947 nM | 2 | 100 | 0.000141 s⁻¹ | 1.49e+07 M⁻¹ s⁻¹
43 | B8 | 0.00452 nM and 0.00632 nM and 0.00517 nM | – | – | 3.65e-05 s⁻¹ and 6.31e-05 s⁻¹ and 5.81e-05 s⁻¹ | 8.08e+06 M⁻¹ s⁻¹ and 9.99e+06 M⁻¹ s⁻¹ and 1.12e+07 M⁻¹ s⁻¹
44 | B9 | 0.00753 nM and 0.00759 nM and 0.00807 nM | 3 | – | 8.91e-05 s⁻¹ and 9.8e-05 s⁻¹ and 9.45e-05 s⁻¹ | 1.2e+07 M⁻¹ s⁻¹ (2×) and 1.3e+07 M⁻¹ s⁻¹
45 | B10 | 0.0113 nM and 0.0124 nM and 0.0115 nM | 2 | – | 0.000145 s⁻¹ and 0.000134 s⁻¹ | 1.3e+07 M⁻¹ s⁻¹ (2×) and 1.1e+07 M⁻¹ s⁻¹
46 | B11 | 0.0133 nM and 0.014 nM and 0.0183 nM | – | – | 0.000186 s⁻¹ and 0.000121 s⁻¹ and 0.000138 s⁻¹ | 1.4e+07 M⁻¹ s⁻¹ and 8.64e+06 M⁻¹ s⁻¹ and 7.57e+06 M⁻¹ s⁻¹
47 | B12 | 0.00407 nM | 5 | 93.9 | 6.25e-05 s⁻¹ | 1.53e+07 M⁻¹ s⁻¹
